# Measurements: patent US20230183352A1 (published 2023)
# B1: QP024025 (antibody, human IgG1, V domains shown)
# VH: QVQLQQPGAELVRPGASVKLSCKASGYTFTSYWINWVKQRPGQGLEWIGNIYPSDSYTNYNQKFKDKATLTVDKSSSTAYMQLSSPTSEDSAVYYCTRSWRGNSFDYWGQGTTLTVSS
# VL: DIVMTQSPSSLTVTAGEKVTMSCKSSQSLLNSGNQKNYLTWYQQKPGQPPKLLIYWASTRESGVPDRFTGSGSGTDFTLTISSVQAEDLAVYYCQNDYSYPFTFGSGTKLEIK
# notes: also called IMAB362; 175D10(IMAB362)
# How the values were obtained:
# [1] = molecular target: T1, Claudin 18.2 (CLDN18.2), expressed on CHOS-CLDN 18.2 / HEK293-CLDN 18.2 / HCC827-CLDN 18.2 cells (human, UniProt P56856-2 1-261); test: FACS, CHOS-CLDN18.2 cells, 5 µg/ml
# T1 construct: whole, on cells; The species is not repeated for the CHOS-CLDN 18.2 cells; also called claudin-18A2
# Experimental: (§1) The initial concentration of the antibody was 20 μg/ml, it was diluted at 1:4, and incubated at 4° C. for 60 min.
# [2] = molecular target: T1, Claudin 18.2 (CLDN18.2), expressed on …; test: FACS, CHOS-CLDN18.2 cells, 0.020 µg/ml
# Experimental: as §1
# [3] = molecular target: T1, Claudin 18.2 (CLDN18.2), expressed on …; test: FACS, CHOS-CLDN18.2 cells, 5 µg/ml; remark: listed apart in the source
# Experimental: as §1
# [4] = molecular target: T1, Claudin 18.2 (CLDN18.2), expressed on …; test: FACS, CHOS-CLDN18.2 cells, 20 µg/ml
# Experimental: as §1
# [5] = molecular target: T1, Claudin 18.2 (CLDN18.2), expressed on …; test: FACS, CHOS-CLDN18.2 cells, 1.250 µg/ml
# Experimental: as §1
# [6] = molecular target: T1, Claudin 18.2 (CLDN18.2), expressed on …; test: FACS, CHOS-CLDN18.2 cells, 0.020 µg/ml; remark: listed apart in the source
# Experimental: as §1
# [7] = molecular target: T1, Claudin 18.2 (CLDN18.2), expressed on …; test: FACS, CHOS-CLDN18.2 cells, 20 µg/ml; remark: listed apart in the source
# Experimental: as §1
# [8] = molecular target: T1, Claudin 18.2 (CLDN18.2), expressed on …; test: FACS, CHOS-CLDN18.2 cells, 20 µg/ml; remark: listed apart in the source
# Experimental: as §1
# [9] = molecular target: T1, Claudin 18.2 (CLDN18.2), expressed on …; test: FACS, CHOS-CLDN18.2 cells, 5 µg/ml; remark: listed apart in the source
# Experimental: as §1
# [10] = molecular target: T1, Claudin 18.2 (CLDN18.2), expressed on …; test: FACS, CHOS-CLDN18.2 cells, 0.078 µg/ml
# Experimental: as §1
# [11] = molecular target: T1, Claudin 18.2 (CLDN18.2), expressed on …; test: FACS, CHOS-CLDN18.2 cells, 0.020 µg/ml; remark: listed apart in the source
# Experimental: as §1
# [12] = molecular target: T1, Claudin 18.2 (CLDN18.2), expressed on …; test: FACS, CHOS-CLDN18.2 cells
# Experimental: as §1
# [13] = molecular target: T1, Claudin 18.2 (CLDN18.2), expressed on …; test: FACS, CHOS-CLDN18.2 cells, 0.020 µg/ml; remark: listed apart in the source
# Experimental: as §1
binder,measurement,setting,value
B1,FACS reading,[1],105000
same,FACS reading,[2],6950
same,FACS reading,[3],105000
same,FACS reading,[4],72300
same,FACS reading,[5],63700
same,FACS reading,[6],6950
same,FACS reading,[7],72300
same,FACS reading,[8],72300
same,FACS reading,[9],105000
same,FACS reading,[10],18200
same,FACS reading,[11],6950
same,EC50,[12],0.27 µg/mL
same,max,[12],88600
same,FACS reading,[13],6950
